The results in this text go back to the supplement of paper PMC12042874.

± gives the uncertainty stated by the source.

The data set is described as follows: amyloid nucleation score (Sup35N fusion, yeast selection) (log enrichment); library NNK3; higher = more nucleation; inactive = no reads after selection. The method in brief: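 Psi-negative yeast expressed Sup35N fused to peptides of 20 random codons. They were induced 24 hours with 100 μM copper sulfate, grown 7 days at 30°C without adenine and uracil, and their plasmid inserts from input and output were Illumina-sequenced. The nucleation score is the DiMSum log enrichment of output over input reads, centred on the mode score of non-aggregating sequences. Sequences with under 100 input reads were excluded.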
For the substance VNKNVMWHDNNKFFHPFRAI, the amyloid nucleation score was found to be 1.6 ± 0.082.
Then IWICYWSCRIKAYRLSNFFD, with “inactive”.
The result for SFNVSRWPRKWISLNCLKIS reads “inactive”; that for NSDSFML, “inactive”.
The result for RDYILKT reads “inactive”.
In the case of PIVEYVFTPMF, the amyloid nucleation score result is “inactive”.
With MIVVHEFLKGYVFSYRLYNL, the amyloid nucleation score result is “inactive”.
The result for GMFDCMIELYISGPDLGQGS reads “inactive”.
Regarding RWVKSKFAV, the amyloid nucleation score result is “inactive”.
The result for LECILADIASCIQPRAYCIS reads “inactive”.
The result for MYSMVGNLTRSWEGIGLGLM reads “inactive”; that for CVMLVAVQGR, “inactive”.
Consider RDCDDQ, for which the amyloid nucleation score result was “inactive”.
YIRELARPTLSRIKRLAPIS: the amyloid nucleation score entry is “inactive”.
Regarding HEYKCKL, the amyloid nucleation score entry was “inactive”.
Take ISRAVRILVVFDEVWMCSDG: the amyloid nucleation score result was “inactive”.
In the case of TMRNKMAY, the amyloid nucleation score result is “inactive”.
The result for LFCVPWVVISPHHSIHRIWV reads “inactive”.
The result for YSCAKRTRVGTRSSRKVSLA reads “inactive”; that for RDRWI, “inactive”.
In the case of ETVDSFVM, the amyloid nucleation score entry is “inactive”.
As for PDAHTKMT, the amyloid nucleation score is 0.603 ± 0.27.
Then DMFNLNLFGLLNCLGVMEET, with 1.31 ± 0.072; and IRAEGQKIYDLPSFCVLIPR, with “inactive”; and ITRTYNYLYTCINTFRQPSV, with 0.045 ± 0.45.
The result for QINMYMVNSRWVTFGIGMLS reads 2.37 ± 0.055.
Then CARRNLAVNYKYWFVGEHYI, with “inactive”; and LQAQMYCLTTLWSWFGRVSR, with “inactive”.
As to ISTKDTLM, the amyloid nucleation score result was “inactive”.
Then PKSLLVPIIRPMQVWRKFDL, with “inactive”; and FLMFKIPDTARELHVNSGLG, with “inactive”; and CVDVSGLFGNIMEVILVMSW, with “inactive”.
The result for RDVMWVNHVYCMLEFWTWVV reads “inactive”.
Then SVSRRGKDR, with -0.237 ± 1.5.
On to ISESKLMLTRWDGVFVTIWD, for which the amyloid nucleation score result is “inactive”.
The result for IGSYIKEGCAITMSRPLFKG reads “inactive”; that for LLFFLAGVSSHIMYLVYARC, “inactive”.
For the substance EGMEWVVEDNFRKMCYTARF, the amyloid nucleation score result is “inactive”.
Turning to GNSASLEEVVLMEEGGVLCA, the amyloid nucleation score result was “inactive”.
NFVDVRIKFTLTADLGHNSG displayed an amyloid nucleation score of 0.756 ± 0.21.
PVVRQRNALILCLSHMSCLE displayed an amyloid nucleation score of 2.15 ± 0.063.
Then NLKNYVFWREILSYVSDPWD, with “inactive”; and SRQNIFLLRLKTMTGQSVNI, with “inactive”; and YRCYVVVSCWIHLNIKWLMY, with “inactive”.
Then WGMICIVYCVGIDMWLYVKC, with “inactive”.
In turn, KVSWMFYRCSDNNN yielded an amyloid nucleation score of 1.66 ± 0.074.
For the substance LCLCVRFFKAFNRFNYRRFF, the amyloid nucleation score entry was “inactive”.
Then FLMVLSMDLYVKLLLGSYIN, with “inactive”; and ESLIRVICMVDERSEQTWSG, with “inactive”.
Then MLWLNNGGLYWIALIFEMSS, with “inactive”; and GDQFQAMHVWNLPDVDYYVH, with “inactive”; and DFGFWLVDVGWGPLLRYVAD, with “inactive”.
The result for PKGEGIMISLFLDCTRLVNG reads 2.11 ± 0.077.
With YLFRNLRGRAIFVNKIIGQR, the amyloid nucleation score entry is “inactive”.
In the case of SFNFSRHLVLF, the amyloid nucleation score result was “inactive”.
Then AIIVCDC, with “inactive”; and ELFMPDSIRT, with “inactive”.
Then SVSPEWYSSLLGSLCGAGFL, with “inactive”; and SLLLLSGFEVSSKR, with “inactive”; and CGTCLRMVKVTRSDV, with “inactive”.
The result for VFGRLFIQMPKLTINQGKFH reads 1.83 ± 0.089; that for RTWLGWEGNIIPSETGTYRS, “inactive”; that for EGSNI, 1.05 ± 0.17.
For IVFFYAEIGYSPSQCRRRVA, the amyloid nucleation score entry is “inactive”.
The result for GSSRRKKLTV reads “inactive”; that for YISYLDMDCEFVLS, “inactive”; that for FEKGSFLDRTESSHIGGLMH, “inactive”.
The result for HECVYYSSLTQSYVSVYIFT reads 2.65 ± 0.077; that for MNLDNFLFKVCLGSCF, “inactive”.
Turning to QVLLCNAPFRQLYVACFYCF, the amyloid nucleation score is 0.422 ± 0.38.
Then IHKLHYIYGGLMSTWLLEDT, with “inactive”; and CSDCDWSDFFVDVSFWIMVI, with “inactive”; and YMYQLKYYASEMNWVYSYSI, with “inactive”.
As to SHFTEFPYLGLHTYAVVE, the amyloid nucleation score entry was “inactive”.
The result for TFVDPGRV reads -0.565 ± 1.1.
As for HTWFNFVYEVRSNKLTP, the amyloid nucleation score entry was “inactive”.
For the substance FVYILGTMMNRRGFDPWIGD, the amyloid nucleation score was 0.631 ± 0.32.
With YICLYHLLVWWDRQFRGFNS, the amyloid nucleation score entry was “inactive”.
Turning to VLLCYNIVKPYNVSC, the amyloid nucleation score result was “inactive”.
Then LARFMANLTGNC, with “inactive”.
The result for WFEEATRGRNETS reads “inactive”; that for QWVVEHRFWLVYNGEHRNSY, 0.762 ± 0.15; that for NVRGDSRA, “inactive”.
Then SESMCVIVSRIIWCGKVSNV, with “inactive”.
Turning to RDIQYLCKYLRSMMHRGQAH, the amyloid nucleation score entry was “inactive”.
Then GVSVCVGDVGNLAAFECFRA, with “inactive”.
As to ELLVNN, the amyloid nucleation score result is “inactive”.
The result for CRLPLQSL reads “inactive”; that for YFLLYTVNGGTASTLNYV, 2.15 ± 0.093.
Then PPLPRFSLSFGRWLFLICHE, with “inactive”; and RVPACAYACLAYGGYDDMAG, with “inactive”.
Then NMTHLFMVCAKVSMPSGDGG, with “inactive”.
With WNRTEDMR, the amyloid nucleation score entry is “inactive”.
Then YFQGWSMVCSDVSTGKSVVM, with “inactive”; and LEFRNHPMSYYTLVGQCVRK, with -0.372 ± 0.8.
The result for GLCRWVTPTAWSAIVVQFCV reads “inactive”; that for YFSAIFFDSLYMLYGSNRAV, 0.356 ± 0.24; that for IEYRKITKLIKLGISGVERS, -0.978 ± 1.3.
Then WSIMSLNFRVDTHYSVHRYV, with 1.95 ± 0.099; and SSDIIHGNDVRSLVRRDRSL, with “inactive”.
As for SNLLS, the amyloid nucleation score entry was “inactive”.
The result for VQWAEVAEMKGWGVANAWW reads “inactive”; that for AVMLREITNIRTKRSRNAMM, “inactive”; that for TSLDCYLMRLFLGWEALKVW, “inactive”.
Then VCLDHHGVGFYVRSSSCSS, with “inactive”; and LILAQVLWFGFETGGKLETM, with “inactive”.
Then INLFICMCEKGYPHDSWVCC, with 2.58 ± 0.083.
As to IGWKEVSA, the amyloid nucleation score was -0.006 ± 0.35.
Then NIKFIEHLLSYSSTPQPLTC, with “inactive”; and PYPESVFQWFEYIPFYCSVR, with “inactive”; and KFSLCSVACFNK, with 2.88 ± 0.052.
Then DVCGFYIHFRFTNKYQGVAS, with “inactive”; and LRTFKITFRGTVKTRRSLTN, with 0.466 ± 0.63.
Then MSNRHWM, with “inactive”; and NIIYYTTVGHVHSVW, with 1.04 ± 0.18; and GRPICNYCRYVVVSVSMRRQ, with “inactive”.
As to RPQSLVYRFISYHRLYYLYR, the amyloid nucleation score result is “inactive”.
With LYRAIHHNKFLESACLRYAL, the amyloid nucleation score result was “inactive”.
For the substance AFQMCATGRRIDTGDVSFVV, the amyloid nucleation score result is “inactive”.
Then GTMVSEIDWVRLTYTGYSE, with “inactive”; and FSDCFSRLVYPRGNNLV, with “inactive”; and NYLYPKLITYYLTSGLRWII, with “inactive”.
Then LRYGEFSCSNLYFTWLSFIL, with 0.749 ± 0.17; and KSYSAWSTVRDSKPTVLGN, with “inactive”.
The result for HRSNCDYDIQYVYIFFS reads 2.36 ± 0.063; that for MSSSIILWNFCNMDRCSLLV, -0.084 ± 0.49.
With ILFKLVKWSAMSFLRCRLFS, the amyloid nucleation score is -0.797 ± 1.4.
Then LPYQIIWRCCAMVNFDFLVL, with “inactive”.
Then THSDYSEPRI, with “inactive”.
The result for ICRQS reads “inactive”; that for VNVMWKPLGLHIVPMFAFGK, 1.13 ± 0.16.
